Assay results as given in patent US20170119892A1, “REFILLABLE DRUG DELIVERY DEVICES AND METHODS OF USE THEREOF” (President and Fellows of Harvard College, priority 2014, published 2017).

Experiments:
[1] = Alginate circulation time in the blood; type: in vivo, C57/B6 mice
Method: C57/B6 mice were injected retro-orbitally with 100 μL 0.5% fluorescent alginate (unoxidized alginate, Dye-750). Mice were shaved on the front and back and imaged with an IVIS Spectrum in vivo imager (ex: 745, em: 820) over 30 days. Shaving was repeated before every image collection. Fluorescence in the blood was measured through quantification of fluorescence in the snout area.
Efficient blood-based refilling of drug payloads relies on sufficient circulation lifetimes that allow payloads to encounter and bind to the primary device. The circulation time of alginate (285 KDa, 44 nm hydrodynamic radius (Rh)) conjugated to a near-IR probe (FIG. 6A) was analyzed following intravenous (IV) administration to mice. […] With a long circulation time, alginate can serve as an efficient intra-vascular drug carrier with the capability of extravasating and interacting with the primary drug delivery device.

[2] = test system: MDA-MB-231 xenograft tumors; assay: Xenograft tumor study with drug refilling; type: in vivo, J:Nu mice; details: 120 ug doxorubicin per animal IV weekly
Method: Tumors were created by injecting 10^6 MDA-MB-231 cells (American Type Culture Collection, VA) combined with Matrigel (BD Biosciences, CA) to a total volume of 200 μL (100 μL PBS and 100 μL Matrigel) into the hind limbs of 8 week old J:Nu (Foxn1^nu/Foxn1^nu) mice (Jackson Labs, ME). 35 days following tumor inoculation tumors were injected with alginate gels. 20 mg/mL alginate conjugated to DNA (thioT-SH or unconjugated) was mixed with doxorubicin (1.6 mg drug per mL of gel), then crosslinked with 4% wt/v CaSO4 (1.22 M) and then 50 μL of gel were injected into tumors with a 23-gauge needle. 2, 3, 4, and 5 weeks after initial tumoral gel injection, mice were injected retro-orbitally with 100 μL 0.5% DNA-conjugated alginate carrying doxorubicin (5% oxidized alginate, thioA-SH, Dye-750, 160 ug Dox-hydrazide=120 μg Dox). Throughout the study, tumor area was measured twice per week with digital calipers in two dimensions and the product of the two dimensional values was used to approximate tumor area. Mice were sacrificed on day 49. […]
Immunocompromised mice bearing MDA-MB-231 xenograft tumors were injected intra-tumor with phosphorothioate DNA-conjugated alginate gels releasing doxorubicin (80 ug per animal) or bolus doxorubicin in PBS. […] The ability of targeted therapy to reduce tumor size was assessed by monitoring the change in tumor size in the three days following each IV administration.

[3] = test system: Alginate conjugated to (T)20 oligonucleotides, ionically crosslinked with calcium to form a gel; assay: Binding of fluorescently-labeled oligonucleotides to DNA-conjugated calcium-alginate gels in vitro; details: phosphate buffer with 1 mM calcium chloride

alginate
circulatory half-life ([1]; IV administration to mice): about seven
remained in circulation ([1]; IV administration to mice, blood fluorescence measured at snout): at least 14 days
organ accumulation (imaging of individual organs) ([1]; two days after injection): accumulation in the lungs, liver, spleen, and to a lesser extent in the kidneys

COc1cccc2c1C(=O)c1c(O)c3c(c(O)c1C2=O)C[C@@](O)(C(=O)CO)C[C@@H]3O[C@H]1C[C@H](N)[C@H](O)[C@H](C)O1 [doxorubicin]
change in tumor size in the three days following each IV administration [2]: continued to grow

(T)20: fluorescently-labeled TTTTTTTTTTTTTTTTTTTT-FAM oligonucleotide, SEQ ID NO: 5
binding of fluorescently-labeled oligonucleotides to gel surface [3]: little binding

(A)20: fluorescently-labeled AAAAAAAAAAAAAAAAAAAA-FAM oligonucleotide, SEQ ID NO: 6
binding of fluorescently-labeled oligonucleotides to gel surface [3]: bound to the gel surface in a sequence-specific manner
